We go through nine molecules from patent publication US20250026850A1 (TRISHULA THERAPEUTICS, published 2025).

Changes are numbered by the printed parent chain.

Sequences and labels used below:
T1: human CD39 on cells (human, UniProt P49961 1-510)
T1 construct: One molecule for all cells that carry human CD39; the cell is named under assay; also called hCD39; cellular CD39
T1 sequence: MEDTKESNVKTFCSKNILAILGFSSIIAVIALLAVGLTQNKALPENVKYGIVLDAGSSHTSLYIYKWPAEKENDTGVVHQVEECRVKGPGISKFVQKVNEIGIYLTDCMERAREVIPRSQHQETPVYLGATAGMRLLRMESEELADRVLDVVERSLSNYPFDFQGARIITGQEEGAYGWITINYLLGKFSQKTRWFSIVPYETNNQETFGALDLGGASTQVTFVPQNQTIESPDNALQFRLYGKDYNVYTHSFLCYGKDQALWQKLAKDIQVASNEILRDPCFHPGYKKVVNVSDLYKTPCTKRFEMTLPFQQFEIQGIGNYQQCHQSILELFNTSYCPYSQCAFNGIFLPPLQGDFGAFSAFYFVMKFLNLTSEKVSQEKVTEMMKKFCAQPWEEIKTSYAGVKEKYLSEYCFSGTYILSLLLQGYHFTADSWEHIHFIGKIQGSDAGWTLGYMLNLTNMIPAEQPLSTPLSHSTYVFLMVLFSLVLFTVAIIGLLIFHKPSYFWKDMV

T2: cynomolgus macaque (Macaca fascicularis) CD39 on cells (cynomolgus macaque (Macaca fascicularis), UniProt P49961 7-510 (human entry))
T2 construct: CHO cells engineered to express cyno CD39, or primary cyno B cells and monocytes; also called cyno CD39; cCD39
T2 chain: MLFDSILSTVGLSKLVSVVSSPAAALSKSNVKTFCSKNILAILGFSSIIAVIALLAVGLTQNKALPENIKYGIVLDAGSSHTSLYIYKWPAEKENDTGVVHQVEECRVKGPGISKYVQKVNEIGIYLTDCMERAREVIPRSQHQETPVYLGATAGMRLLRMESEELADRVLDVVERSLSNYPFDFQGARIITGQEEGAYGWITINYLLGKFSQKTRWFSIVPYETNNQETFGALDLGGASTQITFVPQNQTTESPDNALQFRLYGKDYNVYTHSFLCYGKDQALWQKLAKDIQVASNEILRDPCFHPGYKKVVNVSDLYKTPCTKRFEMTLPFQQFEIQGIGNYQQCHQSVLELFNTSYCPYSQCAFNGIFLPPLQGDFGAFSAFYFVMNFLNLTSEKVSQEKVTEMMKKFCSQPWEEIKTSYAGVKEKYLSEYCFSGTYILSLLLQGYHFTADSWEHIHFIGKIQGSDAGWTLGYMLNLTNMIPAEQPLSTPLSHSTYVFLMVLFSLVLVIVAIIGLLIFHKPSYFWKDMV

T3: rhCD39-ECD-His (R&D Systems) (human, UniProt P49961 38-478)
T3 construct: Bought protein; that entry runs on through the C-terminal transmembrane and cytoplasmic residues; also called recombinant human CD39 extracellular domain; soluble recombinant human CD39 (ENTDP1) ECD; not shown: His tag
T3 sequence: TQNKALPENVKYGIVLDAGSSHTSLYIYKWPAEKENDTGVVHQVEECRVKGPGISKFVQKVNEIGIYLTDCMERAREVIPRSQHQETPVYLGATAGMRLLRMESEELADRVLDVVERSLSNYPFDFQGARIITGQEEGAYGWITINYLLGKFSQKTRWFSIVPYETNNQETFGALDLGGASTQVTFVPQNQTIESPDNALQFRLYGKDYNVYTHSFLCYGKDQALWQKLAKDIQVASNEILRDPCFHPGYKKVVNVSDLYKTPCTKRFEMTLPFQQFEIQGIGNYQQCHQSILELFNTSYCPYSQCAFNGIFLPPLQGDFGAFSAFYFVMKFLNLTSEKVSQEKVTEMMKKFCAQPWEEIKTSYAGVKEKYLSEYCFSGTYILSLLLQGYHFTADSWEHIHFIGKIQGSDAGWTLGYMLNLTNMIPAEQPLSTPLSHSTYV

B1: 31901 (antibody, V domains shown)
VH: QVQLVQSGAEVKKPGSSVKVSCKASGGTFSSLPISWVRQAPGQGLEWMGGIGFGTANYAQKFQGRVTITADESTSTAYMELSSLRSEDTAVYYCARGGAKYAGRYGMDVWGQGTTVTVSS
VL: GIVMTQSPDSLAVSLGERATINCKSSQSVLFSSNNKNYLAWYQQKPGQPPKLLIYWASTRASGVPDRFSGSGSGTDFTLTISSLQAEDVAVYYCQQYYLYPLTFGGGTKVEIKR
B2: 31905 (antibody, V domains shown)
VH: B1 VH with S30P, L32N, P33A, G103R, R104T
VL: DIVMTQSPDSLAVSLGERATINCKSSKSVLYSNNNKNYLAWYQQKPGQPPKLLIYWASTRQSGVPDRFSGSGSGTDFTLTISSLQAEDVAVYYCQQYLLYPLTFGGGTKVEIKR
B3: 31437 (antibody, V domains shown)
VH: QVQLVQSGAEVKKPGASVKVSCKASGGTFQSLAISWVRQAPGQGLEWMGGILPIGGTANYAQKFQGRVTITADESTSTAYMELSSLRSEDTAVYYCARGGAKYAGRYGMDVWGQGTTVTVSS
VL: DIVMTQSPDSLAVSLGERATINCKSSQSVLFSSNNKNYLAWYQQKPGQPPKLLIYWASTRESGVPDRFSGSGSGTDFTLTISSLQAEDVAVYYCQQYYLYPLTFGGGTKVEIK
B4: 29857 (antibody, V domains shown)
VH: B3 VH with A16S, Q30S, S31W, L52I, I54R, G105S, R106T
VL: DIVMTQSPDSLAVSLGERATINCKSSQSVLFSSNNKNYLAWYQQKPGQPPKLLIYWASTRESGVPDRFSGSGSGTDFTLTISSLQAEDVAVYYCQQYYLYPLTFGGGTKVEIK
B5: 31432 (antibody, V domains shown)
VH: B3 VH with A16S, Q30S, S31H, L32T, G105S, R106Q, Y107L
VL: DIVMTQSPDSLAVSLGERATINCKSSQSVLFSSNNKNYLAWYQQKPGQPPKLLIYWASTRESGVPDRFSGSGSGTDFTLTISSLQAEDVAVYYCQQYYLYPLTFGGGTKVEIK
B6: 31436 (antibody, V domains shown)
VH: B3 VH with A16S, Q30S, S31L, G55A, G105V, R106G
VL: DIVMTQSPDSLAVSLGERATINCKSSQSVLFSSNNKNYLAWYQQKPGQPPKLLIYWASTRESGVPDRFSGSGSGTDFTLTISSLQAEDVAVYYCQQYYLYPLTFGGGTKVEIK
B7: 31393 (antibody, V domains shown)
VH: QVQLVQSGAEVKKPGSSVKVSCKASGGTFESYGISWVRQAPGQGLEWMGSIIPEFGIANYAQKFQGRVTITADESTSTTYMELSSLRSEDTAVYYCARESGGYRDHRLDVWGQGTMVTVSS
VL: EIVMTQSPATLSVSPGERATLSCRASQSVGSNLAWYQQKPGQAPRLLIYGASTRATGIPARFSGSGSGTEFTLTISSLQSEDFAVYYCQQYLLWPLTFGGGTKVEIKR
B8: 31861 (antibody, V domains shown)
VH: B7 VH with E30G, T79A, G102T
VL: B7 VL
B9: 31873 (antibody, V domains shown)
VH: B7 VH with E30S, S31K, T79A, D109G
VL: B7 VL with T56S

The target in one experiment is T1, human CD39 on cells. Kind of experiment: flow cytometry on purified human B cells, anti-human IgG-PE, Prism fit; unit from the x axis. On the procedure:
(§1) EC50 was calculated using GrapPad Prism software. […] B cells were gated using FlowJo software and ECsos were calculated using GraphPad Prism.
(§2) B cells were isolated from human donor leukopak using EasySep B cell isolation kit ([…] Technologies). Cyno monocytes were purified from fresh cyno blood using NHP CD14 positive selection kit (Miltenyi) and flow through was collected and stained with CD4, CD8, CD20, CD16, and CD3 antibodies (BD). […] Cell were washed 3 times in FACS buffer (PS, 2% FBS, and 2 mM EDTA) and incubated with secondary antibody (mouse anti-human IgG southern biotech) at 1:100 for 30 minutes at 4 degrees C. Cells were washed 2 times in FACS buffer and resuspended in FACS buffer and analyzed on BD Celesta.
The term EC50 denotes the midpoint of the concentration-response curve. Read a high EC50 as a less potent agent. B1: the EC50 turned out to be 0.0438 µg/mL.
On the same count and under the same terms, the value for B2 was 0.0805 µg/mL; that for B3 was 0.109 µg/mL.

A further experiment concerns the target T2, cynomolgus macaque (Macaca …). Kind of experiment: flow cytometry on cyno PBMC, gated B cells, anti-human IgG PE, Prism fit; unit from the x axis. The procedure: as §1, §2
In turn, B1 displayed an EC50 of 0.124 µg/mL.
Still for that read-out and setting: next, B2: 0.124 µg/mL; B3: 0.108 µg/mL.

The target of a further experiment is T1, human CD39 on cells. Kind of experiment: flow cytometry on 721 cells, anti-human IgG secondary, Prism fit; unit from the x axis. The procedure: (§3) Cells were washed 3 times in FACS buffer (PS, 2% FBS, and 2 mM EDTA) and next incubated with secondary antibody (goat anti-human IgG Southern Biotech) at 1:100 for 30 minutes at 4 degrees C. Cells were washed, resuspended in FACS buffer, and analyzed for binding by flow cytometry analysis on BD Celesta.
(Flow cytometry measures light scatter and fluorescence of single cells or particles in a stream.)
As for B1, the EC50 was determined as 0.851 µg/mL.
B2 registered an EC50 of 2.63 µg/mL.
The same measure, in the same setting: next, B3: 7.46 µg/mL.

In the next experiment the target is T1, human CD39 on cells. The experiment can be described thus: flow cytometry on MEL-28 cells, anti-human IgG secondary, Prism fit; unit from the x axis. The procedure: as §3
Molecule B1 displayed an EC50 of 0.102 µg/mL.
Still for that read-out and setting: next, B2: 0.159 µg/mL; B3: 0.368 µg/mL.

The next experiment addresses T2, cynomolgus macaque (Macaca …). Kind of experiment: flow cytometry, 100 nM IgG, cCD39-CHO cells; MFI ratio to parental CHO.
Turning to B1, the “Cell Binding (FOB)” value is 4660 FOB.
The same measure, in the same setting: next, B2: 4940 FOB.
Same read-out and setting: the value for B4 was 1140 FOB.
The same measure, in the same setting: next, B5: 5700 FOB; B3: 3640 FOB; B6: 3570 FOB.
For the molecule B7, the “Cell Binding (FOB)” value came to 2960 FOB.
On to B8, for which the “Cell Binding (FOB)” value was determined as 5480 FOB.
As for B9, the “Cell Binding (FOB)” value stood at 5080 FOB.

A further experiment addresses T3, rhCD39-ECD-His (R&D Systems). Kind of experiment: BLI (Octet), IgG on anti-human Fc sensor, rhCD39-ECD-His 10-300 nM, 1:1 fit. The procedure:
The kinetic data was globally fit with a simple 1:1 Langmuir binding model to yield on-rate (kon) and off-rate (koff) values. The equilibrium dissociation constants (KD) were calculated from the kon and koff values.
Binding kinetics were measured using the Octet Red96 system (ForteBio) at 25° C. in running buffer (1× Pall ForteBio Kinetics Buffer diluted into PBS or Tris pH 7.4). […] After a short baseline step in running buffer, the sensors were exposed to varying concentrations (10-300 nM) of rhCD39-ECD-His (R&D Systems) for the association step. Dissociation of the complex was monitored upon exposure of the sensors to running buffer once again. Data was processed using ForteBio Octet software with baseline subtraction, global fit and 1:1 binding model to obtain association and dissociation rates. KD was calculated from the ratio of kd to kₐ.
As usually defined, the Kd is the equilibrium constant for the complex coming apart. One may read the koff as the first-order rate constant of dissociation. A lower koff goes with slow dissociation. What is called kon is the rate constant with which the complex forms. Higher therefore signals faster complex formation. In the case of B1, the Kd is 0.128 nM, the koff was determined as 0.000132 s⁻¹ and the kon was determined as 1.03e+06 M⁻¹ s⁻¹.
Taken in the same sequence, the figures for B2 were 0.0731 nM, 0.000111 s⁻¹ and 1.52e+06 M⁻¹ s⁻¹.
Taken in the same sequence, the figures for B4 were 0.76 nM, 0.000229 s⁻¹ and 302000 M⁻¹ s⁻¹.
With B5, the Kd is 1.07 nM, the koff turned out to be 0.000286 s⁻¹ and the association rate constant (kon) was 268000 M⁻¹ s⁻¹.
Taken in the same sequence, the figures for B3 were 0.558 nM, 0.000213 s⁻¹ and 382000 M⁻¹ s⁻¹.
Taken in the same sequence, the figures for B6 were 0.924 nM, 0.000243 s⁻¹ and 263000 M⁻¹ s⁻¹.
Molecule B7 showed a dissociation constant (Kd) of 0.672 nM, an off-rate constant (koff) of 0.0002 s⁻¹ and a kon of 298000 M⁻¹ s⁻¹.
As to B8, binding was characterised by a dissociation constant (Kd) of 1.16 nM, the off-rate (koff) is 0.000286 s⁻¹ and the kon turned out to be 246000 M⁻¹ s⁻¹.
Taken in the same sequence, the figures for B9 were 0.922 nM, 0.000286 s⁻¹ and 311000 M⁻¹ s⁻¹.

For the next experiment, the target named is T1, human CD39 on cells. Kind of experiment: flow cytometry, 100 nM IgG, hCD39-CHO cells; MFI ratio to parental CHO.
On to B1, for which the “Cell Binding (FOB)” value worked out at 1110 FOB.
For the molecule B2, the “Cell Binding (FOB)” value came out at 1080 FOB.
Same read-out and setting: the value for B4 was 224 FOB; that for B5 was 1170 FOB; that for B3 was 1290 FOB.
With B6, the “Cell Binding (FOB)” value was found to be 1320 FOB.
On the same count and under the same terms, the value for B7 was 1060 FOB; that for B8 was 1430 FOB.
On the same count and under the same terms, the value for B9 was 1320 FOB.

In another experiment the target is T1, human CD39 on cells. The experiment can be described thus: flow cytometry on purified human CD4+CD25+CD127dim Treg cells, anti-human IgG secondary, Prism fit; unit from the x axis. On the procedure: Treg cells were isolated from human donor leukopak using CD4⁺CD25⁺CD127^dim regulatory T cell isolation kit II (Miltenyi). […] Cell were washed 3 times in FACS buffer (PS, 2% FBS, and 2 mM EDTA) and incubated with secondary antibody (mouse anti-human IgG southern biotech) at 1:100 for 30 minutes at 4 degrees C. Cells were washed 2 times in FACS buffer, resuspended in FACS buffer and analyzed on BD Fortessa.
B1 showed a 50% effective concentration (EC50) of 0.519 nM.
On the same count and under the same terms, next, B2: 0.735 nM.
